Measured values published in the nanobody polyreactivity screen of Harvey et al. (2022).

Assay: yeast display, Sf9 membrane polyspecificity reagent, FACS + sequencing; frameworks hold sequencing errors
Summary of the method: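 Galactose-induced (36–48 hours) yeast carrying a synthetic nanobody display library were exposed to 10% biotinylated, detergent-solubilized Sf9 membrane reagent at 4 °C for 1 hour. FACS followed streptavidin microbead enrichment, using low and high (top ~1%) gates for expression (anti-HA) and reagent binding (streptavidin). Colony PCR, MiSeq 2 × 250 sequencing and CDR-length filtering followed. Labels for polyreactivity reflect the gate of origin.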

| Sequence | polyreactivity (PSR sort gate) |
| --- | --- |
| QVQLEESGGGLVQAGGSLRLSCAASGNIFESYGMGWYRQAPGKERELVATINTSSGSTYYADSVKGRFTISRDNAKNTVYLQMNSLKPEDTAVYYCAAEWYPYPWGYGYWGQGTQVTVSS | low polyreactivity |
| QVQLEESGGGLVQAGGSLRLSCAASGPIFPGYVMGWYRQAPGKERELVAAISVRGGSTYYADSVKGRFTISRDNAKNTVYLQMNSLKPEDTAVYYCAADSYYYQGYRRYNYDYWGQGTQVTVSS | high polyreactivity |
| QVQLEESGGGLVQAGGSLRLSCAASGRIFAVNAMGGYRQAPGKERELVAAINGGGSTNYADSVKGRFTLSRDNAKNTVYLQMNSLKPADTAVYYCAADVGWRSQTRGYYWGQGTQVTVSS | high polyreactivity |
| QVQLEESGGGLVQAGGSLRLSCAASGRIFDDNAMGWYRPAPGKERELVAAISSSGGSTYYADSVKGRFTISRDNAKNTVYLQMNSLKPEDTAVYYCNAGRYIRAFWYAHGYDYWGQGTQVTVSS | high polyreactivity |
| QVQLEESGGGLVQAGGSLRLSCAASGRIFIKNAMGWYRQAPGKVRELVAAISARGGSTYYADSVKGRFTISRDIAKNTVYLEMNSLKPEDTAVYDCAVDVYEPRYRRPLHHDYWGQGTQVTVSS | low polyreactivity |
| QVQLEESGGGLVQAGGSLRLSCAASGRIFLTYAMGWYRQAPGKERELVAAIRSRSGTTYYADSVKGRFTISRDNAKNTVYLQMNSLKPEDTAVYYCAAGGKSRSYYWGQGTQVTVSS | high polyreactivity |
| QVQLEESGGGLVQAGGSLRLSCAASGRIFLYNAMGWYRQAPGKERELVAAISRSGGSTYYADSVKGRFTISRDNAKNTVYLQMNSLKPEDTAVYYCAVGSPYGCRAPWVRGGDYWGQGTQVTVSS | high polyreactivity |
| QVQLEESGGGLVQAGGSLRLSCAASGRIFQYYDMGWYRPATGKERELVAGIRTNGSSTYYADSVKGRFTISRDNAKNTVYLQMNSLKPEDSAVYYCAARHYRYLRQYDYWGQGTQVTVSS | low polyreactivity |
| QVQLEESGGGLVQAGGSLRLSCAASGRIFSRNARGWYRPSPGKERELVAASSSGGGSTYYADSVKGRFTISRDNAKNTVYLLMNSLKPEDTAVYYCAARTRITYDWGQGTQVTVSS | low polyreactivity |
| QVQLEESGGGLVQAGGSLRLSCAASGRIFTYYGMGWYRQAPGKERELVAAITRSGGSTRYADSVKGRFTISRDNAKNTVYLQMNSLKPEDTAVYFCAKTHYGVQRLDSCGQGTQVTVSS | low polyreactivity |
| QVQLEESGGGLVQAGGSLRLSCAASGRIFVIYAMGWYRQAPGKERELVAVITSGGRTYYADSVNGRFTISRDNAKNTVYLQMNRLKPEDTAVYYCAARTGRGFEYWGQGTQVTVSS | high polyreactivity |
| QVQLEESGGGLVQAGGSLRLSCAASGRIFYEYAMGWYRQAPGKERELVADISSGDDTYYADSVKGRFTISRDNAKNTVYLQMNSLKPEDTAVYYCAADDGGSGFIYDYWGQGTQVTVSS | low polyreactivity |
| QVQLEESGGGLVQAGGSLRLSCAASGRISGFNAMGWYRKAPGKEREFVAAISYRGGYTYADSVKGRFTISRDNAKNTVYLQMNSLKPEDTAVYYCNALWRGHGRYNYWGQGTQVNVSS | low polyreactivity |
| QVQLEESGGGLVQAGGSLRLSCAASGRSFWPNAMGWYRQAPGKERELVAAISSGGSTNYADSVKVRFTISRDNAKNTVYLQMNSLKPEDTAVYYCASDGQGDKYDYYGHNFWGQGTQVTVSS | low polyreactivity |
| QVQLEESGGGLVQAGGSLRLSCAASGRSFYGNAMGWYRQAPGKERELVAASSSRSSSTSYADSVKGRFTISRANAKNTVYLLMNSLKPEDTAVYYCATRYGSRTWYGYNYWGQATQVTVSS | high polyreactivity |
| QVQLEESGGGLVQAGGSLRLSCAASGRTFGRYDMGWYRQAPGKEREFVAAISTRGSRTYYADSVKGRFTISRDNAKNTVYLQMNSLKAEDTAVYYCAAEYLPRPYSWIYYYWGQGTQVTVSS | high polyreactivity |
| QVQLEESGGGLVQAGGSLRLSCAASGRTFRYYAMGWSRQAPGKERELVAAISWSGSSTYYADSVKGRFTISRDNAKNTVYLQMNSLKAEDTAVYYCNAKGVRGKYFDYSRVSAYDYWGQGTQVTVSS | low polyreactivity |
| QVQLEESGGGLVQAGGSLRLSCAASGRTFSIYAMGWYRQAPGKERELVASITGRGTRTYYADSVKGRFTISRDNAKNTVYLQMNSLKPEDTAVYYCNARGKVQSSYDDDYWGQGTQVTVSS | high polyreactivity |
| QVQLEESGGGLVQAGGSLRLSCAASGRTFVPYVMGWYRQAPGKEMELVATINWSGGSTYYADSVKGRFTISRDNAKNTVYLQMNSLKPEDTADYYCAARYYSDWFYYLFRYDYWGQGTQVTVSS | low polyreactivity |
| QVQLEESGGGLVQAGGSLRLSCAASGRTFYRSAMGWYRPEPGKERELVAAITWSGGSTYYAVSVKGRFTTSRDNAKNTVYLQMNSLKPEDTAVYYCARRLYPYRPTAYDYWGQGTQVTVSS | low polyreactivity |
| QVQLEESGGGLVQAGGSLRLSCAASGRTFYSSAMGWYRQPPGKERQLVAAITISGGRTFYADSVKGRSTISRDNAKNTVYLQMNSLKPEDTAVYYCATDTYEPFHFEDDYWGQGTQVTVST | low polyreactivity |
| QVQLEESGGGLVQAGGSLRLSCAASGRTIIINTMGWYRQAPGKERELVAAISKNGATTNYADSLKGRFTISRDNAKNTVYLQMNSLKPEDTSVYYCNARYSGYLRLDYWGQGTQVNVSS | low polyreactivity |

| Sequence | polyreactivity (PSR sort gate) |
| --- | --- |
| QVQLEESGGGLVQAGGSLRLSCAASGRTSYGYAMGWYRQAPGKERELVAAISSGGRTNYADSVKGRFTISRDNAKNTVYLQMNSLKPEDTAVYYCAKRYRYRPSYDYWGQGTQVTVSS | high polyreactivity |
| QVQLEESGGGLVQAGGSLRLSCAASGRTTYWYAMGWYRQAPGKERELVADISWSGGSTYYADSVKGRFTISRDNAKNTVYLQMNSLKPEDPAVYYCNAAEQKYSIYYAFDTGPYDYWGQGTQVTVSS | low polyreactivity |
| QVQLEESGGGLVQAGGSLRLSCAASGRTYRYAMGWYRQSPGKERELVAAIRWSGGSTYYADSVKGRFTISRDNAKNTVYLQMNSLKPEDTAVYYCAADSYATRYYYWGQGTQVTVSS | high polyreactivity |
| QVQLEESGGGLVQAGGSLRLSCAASGSICGVYVMGWYRQAPGKERELVASISRGTTTNYADSVKGRFTISRDNAKNTVYLQMNSLKPEDTAVYYCNADIRGFFFQYDYWGQGTQVTVSS | low polyreactivity |
| QVQLEESGGGLVQAGGSLRLSCAASGSICWLYAMGWYRQAPGKERELVAAIDSGDSTKYADSVKGRFTISRDNAKNTVYLQMNSLIPEDTAVYYCNASRRYHVRAPYDYWGQGTQVTVSS | low polyreactivity |
| QVQLEESGGGLVQAGGSLRLSCAASGSICYYYARGWYRQAPGKERELVASITSGGRTYYADSVKGRFTISRDNAKNTVYLQMNSLKPEDTAVYYCAAQRIWLGDYWGQGTQVTVSS | high polyreactivity |
| QVQLEESGGGLVQAGGSLRLSCAASGSIFARNAMGWYRQAPGNERELVAAISTGGGSTYYADSVKGRFTISRDNAKNSVYLQMKSLKPEDTAVYYCNAGDTQIRFYYWGQGTQVSVSS | low polyreactivity |
| QVQLEESGGGLVQAGGSLRLSCAASGSIFGAYALGWYRQAPGKERELVAAISSSVDRTYYADSVKGRFTISRDNAKNTVYLQMNSLKPEDTAVYYCAARWGTRDRTKYYYWGQGTQVTVSS | high polyreactivity |
| QVQLEESGGGLVQAGGSLRLSCAASGSIFGFYAMGWYRQAPGKERELVAAISQRGGNTYYADSVKGRFTISRDNAKNTVYLQMNSLKPEDTAVYYCATDKHPYKRHWYYTYDYWGQGTQLTVSS | high polyreactivity |
| QVQLEESGGGLVQAGGSLRLSCAASGSIFITYAMGWYRQAPGKERELVAAIRDSGDRTYYADSVKGRFTISRDTAKNTVYLQMNSLKPEDTGVYYCNARWQETLKYDYWGQGTLVTVSS | low polyreactivity |
| QVQLEESGGGLVQAGGSLRLSCAASGSIFKRKAMGWSRQAPGKERELVASISSGGSTHYADSVKGRFTISRDNAKNTVYLQMNSLKREDTAVYYCAATSIRWSVGSFRRDYWGQGTQVTVSS | low polyreactivity |
| QVQLEESGGGLVQAGGSLRLSCAASGSIFLANAMGWYRQAPGKERELVATISSGGSTYYADSVKGRFTISRDNAKNTVYLQMNSLKPEDTAVYYCAKRRAYTKKLYYWGQGTQVTVSS | high polyreactivity |
| QVQLEESGGGLVQAGGSLRLSCAASGSIFPFYAMGRYRQAPGKERELVAAISDRGGSTYYADSVKGRFTISRDNAKNTVYLQMNSLKPEDTAVYYCAKGGGVSQGYTDEYDYWGQGTQVTVSS | low polyreactivity |
| QVQLEESGGGLVQAGGSLRLSCAASGSIFSGYTMGWYRQAPGKERELVAGISYRGGSTYYADSVKGRFTISRDNAKNTVYLQMNSLKPEDTAVYYCAARVWWRYEYWGQGTQVTVSS | high polyreactivity |
| QVQLEESGGGLVQAGGSLRLSCAASGSIFSYNAMGWYRQAPGKERELVAAISRGSGSTYYADSVKGRFTISRDNAKNTVYLQMNSLKPEDTAVYYCATRSIRVLPDVYRKADDYWGQGTQVTVSS | low polyreactivity |
| QVQLEESGGGLVQAGGSLRLSCAASGSIFVGNVMGWYRQAPGKERELVAAITYSGGSTYYADSVKGRFTISRDNAKNTVYLQMNSLKPEDTAVYYCAKPSRVSIGYDYWGQGTQVTVSS | low polyreactivity |
| QVQLEESGGGLVQAGGSLRLSCAASGSIFVYYGMGWYRQAPGKERELVAAISSGGSTHYADSVKGRFTISRDNAKNTVYLQMNSLKPEDTAVYYCNARAYGNGLGTGYFGKHRYDYWGQGTQVTVSS | low polyreactivity |
| QVQLEESGGGLVQAGGSLRLSCAASGSIFWGYAIGWYRQAPGKERELVAAISNTGSTNYADSVKGRFTISRDNAKNTVYLQMNSLKPEDTAVYYCNASYTYGEMDYWGQGTQVTVSS | low polyreactivity |
| QVQLEESGGGLVQAGGSLRLSCAASGSIFYLNDMGWYRQAPGKEREFVAAIDSRGTSTYYADSVKGRFTISRDNAKNTVYLQMNSLKPEDTAVYYCAADSYALEYDYWGQGTQVTVSS | low polyreactivity |
| QVQLEESGGGLVQAGGSLRLSCAASGSIFYSYAMGWYRQAPGNERELVAAITRGGSTYYADSVKGRFTISRDNAKNTVYLQMNSLKPEDTAVYYCAADSQYGWPEYEYDYWGQGTQVTVSS | low polyreactivity |
| QVQLEESGGGLVQAGGSLRLSCAASGSILPDYVMGWYRQAPGKERELVAAISWSDGSTYYADSVKGRFTISRDNAKNTVYLQRNSLKPEDTAVYYCAAEVWDYYYGCYADDYWGQGTQVTVSS | low polyreactivity |
